Reference: the supplement of paper PMC9732359
± gives the uncertainty stated by the source.

Assay: protein stability index of a GFP-peptide fusion (yeast GPS) (PSI 1-4); higher = more stable; sorted into four equal gates, so the index is relative within each strain
Summary of the method: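 Tiled yeast protein peptides of 17 residues were each joined downstream of GFP, on plasmids that also express Cherry. The pooled library was maintained in yeast, and mid-log cultures in leucine-free medium were sorted into four equal gates on the GFP/Cherry ratio. Plasmids from every gate were amplified by PCR and sequenced on Illumina, with barcodes linking reads to strains. The protein stability index of a peptide is its gate-number-weighted read frequency summed over the gates.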

Sequence | protein stability index (pdr5∆) | protein stability index (doa10∆) | protein stability index (san1∆) | protein stability index (ubr1∆)
PEWMILTCLPVPPPPVR [RPO21] | 3.52 ± 0.17 | – | – | –
LNDLNHLLVQLQKNDVY [REC8] | 2.48 ± 0.047 | 2.52 ± 0.051 | 2.47 ± 0.058 | 2.17 ± 0.042
QIRACKDLKHIIYYKFN [PRP8] | 1.73 ± 0.037 | 1.72 ± 0.037 | 1.84 ± 0.056 | 1.59 ± 0.042
LDNMTYSSVAGTVSRVN [RRP4] | 2.52 ± 0.05 | 2.44 ± 0.049 | 2.23 ± 0.051 | 2.21 ± 0.036
KEQTIQLPSKFTCSCNS [RPN14] | 2.53 ± 0.057 | 2.15 ± 0.065 | 1.96 ± 0.063 | 2.16 ± 0.038
AFQLADGIHYILNHIGQ [PRP8] | 2.97 ± 0.16 | 2.71 ± 0.14 | 2.71 ± 0.24 | 2.65 ± 0.14
TVDVSSPTENGVFDPAS [RPL22A] | 3.17 ± 0.064 | 3.06 ± 0.054 | 2.69 ± 0.057 | 2.87 ± 0.042
LTVENKLQFETDRLSTT [SMC1] | 3.05 ± 0.05 | 3.24 ± 0.077 | 2.84 ± 0.047 | 2.94 ± 0.044
TKENGDFTLPEDFAPLL [PRP8] | 2.78 ± 0.18 | – | – | 3.2 ± 0.1
LEEIRGNPLSIGTLEEI [RPT2] | 3.42 ± 0.14 | 3.29 ± 0.1 | 3.13 ± 0.076 | 3.25 ± 0.17
QLESYEYMVQYIDEMYN [RRI1] | 2.89 ± 0.075 | 2.74 ± 0.052 | 3.27 ± 0.14 | 2.42 ± 0.071
KKVNYKVTSYDITGDIR [ISW2] | 2.51 ± 0.055 | 2.72 ± 0.058 | 2.83 ± 0.068 | 2.67 ± 0.051
KALILAPTRELVQQIQK [PRP28] | 2.82 ± 0.055 | 2.67 ± 0.087 | 2.75 ± 0.073 | 3 ± 0.069
HDEKLSDELHNQSTIYE [LIN1] | 2.74 ± 0.12 | 2.91 ± 0.11 | 2.73 ± 0.16 | 2.77 ± 0.097
LTTFANQVMMDRKIQGW [ARP7] | 2.62 ± 0.059 | 2.69 ± 0.081 | 2.45 ± 0.076 | 2.65 ± 0.049
TEISGLKNVNKRAFENF [SMC3] | 3.09 ± 0.097 | 3.28 ± 0.079 | 2.7 ± 0.096 | 2.96 ± 0.057
IAAKLINSGLYSVLLES [YML103C/NUP188] | 2.08 ± 0.099 | 2.54 ± 0.099 | 2.7 ± 0.076 | 2.67 ± 0.095
CYLRWQHLRNEHGMNAP [SNF2] | 3.33 ± 0.1 | 3.15 ± 0.072 | 3.4 ± 0.087 | 2.9 ± 0.066
LLKKELLTIEPKLKEAT [SMC2] | 3.14 ± 0.064 | 3.22 ± 0.052 | 3.11 ± 0.046 | 3.21 ± 0.039
NSSNYAELFNNDIKLFV [PRP8] | 2.48 ± 0.036 | 2.44 ± 0.041 | 2.26 ± 0.048 | 2.27 ± 0.029
LQALKANDEEAYIKLLD [SNF2] | 3.29 ± 0.1 | 2.91 ± 0.093 | 3.36 ± 0.11 | 2.77 ± 0.2
GILRRKSESDELQMRSF [RRP4] | 3.04 ± 0.17 | 3.06 ± 0.11 | 3.18 ± 0.11 | 3.16 ± 0.084
RMFEKNVMLNIYPRTVI [SKI6] | 1.37 ± 0.11 | 2.21 ± 0.14 | 1.06 ± 0.27 | 2.24 ± 0.094
RKRAHSLVSTQSSSSTR [REC8] | 2.94 ± 0.068 | 2.86 ± 0.069 | 2.77 ± 0.051 | 2.92 ± 0.068
RCFSCGKVVGDKWESYL [RPB10] | 2.11 ± 0.1 | 1.73 ± 0.14 | 1.98 ± 0.16 | –
SSSKSMINDENYIINDI [SRB8] | 2.82 ± 0.052 | 2.92 ± 0.064 | 2.63 ± 0.074 | 2.83 ± 0.04

Sequence | protein stability index (pdr5∆) | protein stability index (doa10∆) | protein stability index (san1∆) | protein stability index (ubr1∆)
DEAEGRFEVINNETEQL [SMC1] | 2.56 ± 0.076 | 2.07 ± 0.072 | 3.04 ± 0.14 | 2.82 ± 0.1
QFQRLAPSLTVPPIASP [PRE2] | 2.03 ± 0.049 | 2.14 ± 0.053 | 1.85 ± 0.055 | 2.15 ± 0.038
KKSRLGNSFHLMRELLK [PRP8] | 2.71 ± 0.046 | 2.58 ± 0.04 | 2.39 ± 0.049 | 2.55 ± 0.043
FIRYDVKTPKKTKYILQ [CSN12] | 2.29 ± 0.048 | 2.34 ± 0.048 | 1.78 ± 0.057 | 2.35 ± 0.051
DHNGVPFPQYPAGMNET [ITC1] | 2.59 ± 0.11 | 1.97 ± 0.12 | 2.8 ± 0.19 | 2.42 ± 0.064
EARINELLSSLEGKGSL [RPP2B] | 2.79 ± 0.099 | 2.74 ± 0.12 | 2.91 ± 0.047 | 3.2 ± 0.077
NIWGTVRTNRFDIIEES [ECM29] | 3.35 ± 0.12 | 2.23 ± 0.23 | 2.54 ± 0.11 | 2.98 ± 0.12
EYALEAVKRGTCAVGVK [PRE6] | 2.53 ± 0.094 | 1.93 ± 0.08 | 2.21 ± 0.13 | 2.92 ± 0.084
VDYGGAEWSLVRIYSGL [SNU114] | – | – | – | 3.66 ± 0.18
DKKEMTIYNNIREGQNQ [SIR3] | 3.37 ± 0.07 | 3.21 ± 0.056 | 3.02 ± 0.041 | 3.27 ± 0.034
KYKSGGKFSFSPLQKEE [SSN2] | 1.43 ± 0.064 | 1.54 ± 0.072 | 1.46 ± 0.15 | 1.53 ± 0.047
DDESEQISLNRLIDSMK [RRI1] | 3.11 ± 0.28 | 3.03 ± 0.16 | – | 3.15 ± 0.14
SLLDAEEERRKKRESGV [SNF2] | 3.32 ± 0.1 | 3.47 ± 0.08 | – | 3.47 ± 0.047
ETISKLNEYKRETLVKT [SMC2] | 1.99 ± 0.046 | 2.02 ± 0.059 | 2.19 ± 0.062 | 2.57 ± 0.034
EEAAEESDDDMGFGLFD [RPP1B] | 2.87 ± 0.073 | 3.14 ± 0.059 | 3.371 ± 0.029 | 3.23 ± 0.037
YPFDKLESWWLVLGEVS [BRR2] | 3.23 ± 0.15 | 3.18 ± 0.18 | 3.46 ± 0.11 | 3.41 ± 0.24
PDKLLGVILMFAAILVL [COB] | 1.62 ± 0.11 | 1.63 ± 0.11 | 1.66 ± 0.12 | 1.59 ± 0.11
TGAGVSTSLGIPDFRSS [SIR2] | 2.51 ± 0.082 | 2.19 ± 0.079 | 2.1 ± 0.19 | 2.86 ± 0.078
SSEYETINISLSFSWAI [NUT1] | 1.64 ± 0.16 | 1.51 ± 0.1 | 2.21 ± 0.13 | 2.4 ± 0.13
IVKTSSGNEMPPQDAEG [RPS19A] | 3.46 ± 0.29 | 2.3 ± 0.25 | – | –
IQIDEETENSESIASSN [MCD1] | 2.73 ± 0.072 | 2.4 ± 0.071 | 2.5 ± 0.082 | 2.76 ± 0.051
QVSEVDPGRYNKVCRIE [RPB8] | 3.04 ± 0.081 | 3.07 ± 0.13 | 2.65 ± 0.084 | 2.93 ± 0.06
LLMRLEGNYRNLNNLKQ [RPB8] | 3.13 ± 0.13 | 3.29 ± 0.14 | 3.22 ± 0.2 | 3.37 ± 0.082
CVNLSLFDARFERKNPH [SRB8] | 3.16 ± 0.061 | 3.2 ± 0.089 | 3.34 ± 0.083 | 3.17 ± 0.053
SSIDRGFGRCETRRKTT [RET1] | 2.38 ± 0.12 | 2.41 ± 0.071 | 2.21 ± 0.13 | 2.52 ± 0.05
GMPNMPGMPNMPGMPNM [SRP54] | 3.21 ± 0.064 | 3.37 ± 0.088 | 3.13 ± 0.061 | 3.14 ± 0.051
